Assay results published in the supplement of paper PMC10567573.

B1: MMP1 (parent)
chain: FVRGDHRDNSPFDGPGGNLAHAFQ

Variants of: B1
Test: protein stability index of a GFP-peptide fusion (GPS, HEK-293T) (PSI 1-6); higher = more stable
Settings: c terminus: a fixed tail appended
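Note: lentivirally expressed fusions sorted by FACS into six bins by GFP to DsRed ratio, PSI derived from sequencing read proportions per bin multiplied by bin number.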

Protein stability index: each site, then its substitutions
G4: W 1.94, V 1.94, Y 2.09
N18: M 1.99, I 1.01, Q 2.27, D 1.5, A 2.74, P 2.17, V 2.14, Y 1.7, S 2.18, H 1.88, E 2.15, T 1.92, F 4.34, L 3.23, G 1.99, R 3.01, C 1.5, K 2.5
P11: S 2.91, N 2.13, D 2.79, F 1.83, K 1.78, E 2.06, C 2.61, V 2.06, Y 2.04, T 1.8, M 1.6, Q 2.02, I 1.7, L 1.34, A 1.81, G 2.89, R 2.4, W 1.84, H 1.5
A20: Y 1.29, N 1.76, R 1.43, D 1.74, I 2.04, Q 1.69, G 1.92, L 2.49, E 1.89, S 1.88, T 3.31, C 2.69, P 1.74, F 2.66, K 2.56, V 1.99, M 1.88, H 1.44
F12: G 2.24, D 2.3, Q 1.8, H 1.99, V 1.94, C 2, S 1.95, K 2.27, R 1.84, M 2.08, N 1.83, W 3.55, T 2.39, L 1.72, E 1.82, I 1.72, A 1.91, Y 2.89, P 2.31
D5: P 2.27, K 3.58, I 1.66, R 3.46, A 2.15, G 1.34, F 2.45, W 2.86, N 2.52, S 2.75, T 3.73, V 1.81, E 1.5
D13: I 1.63, E 2.57, Y 3.03, V 3.19, G 2.6, A 1.37, P 3.31, T 2.27, N 1.77, M 1.03, L 1.47, C 2.36, R 1.48, Q 2.21, H 3.02, S 2.56, K 1.59
G16: A 1.34, Q 2.75, W 3.43, H 1.87, S 2.23, D 2.29, I 2.4, N 1.69, C 2.63, K 1.52, M 1.79, T 2.32, P 1.75, E 2.54, Y 2.73, V 1.83, R 2.45, L 2.81
D8: K 2.78, Y 3.24, E 1.31, N 2.68, A 1.63, W 3.09, L 2.25, I 1.87, G 1.84, R 1.62, V 2.25, M 3.46, C 3.26, S 2.08, H 2.29, Q 3.21, F 4.46, P 2.12, T 2.28
G14: I 2.51, D 2.25, E 2.06, F 2.93, N 1.7, V 3.45, C 2.99, H 1.39, A 2.12, Q 3.14, R 1.6, L 2.44, T 1.76, S 1.89, W 1.69, K 1.77, Y 2.2, P 1.91
H21: S 2.2, N 2.15, G 1.81, I 2.7, F 2.31, D 2.15, Q 1.62, C 2.53, L 1.57, Y 2.91, M 2.01, A 2.77, E 1.94, R 1.33, K 1.95, P 1.47, T 2.1, V 1.6
H6: E 1.76, A 2.42, C 2.02, V 2.48, M 2.16, K 2.57, D 2.5, F 3.13, R 1.99, P 1.48, L 2.64, G 2.26, T 1.58, Q 1.42, S 1.85, I 1.55, N 1.33
S10: H 1.51, M 2.11, Y 1.71, T 2.13, Q 1.6, I 1.71, D 1.35, N 1.38, E 1.53, V 1.42, P 2.84, C 1.83, G 1.3, A 2.32, F 2.42, K 2.63, L 1.83, R 2.03
N9: Y 2.58, W 2.12, H 4.14, Q 2.07, S 2.41, C 1.93, I 3.22, L 2.31, A 2.53, G 1.38, T 2.13, P 2.4, K 2.47, V 1.87, M 2.27, D 1.8, E 2.15, F 3.83
L19: S 1.15, F 2, K 2.25, R 1.66, T 2.08, G 2.63, H 1.39, V 3.29, I 1.95, N 1.73, Y 1.64, M 2.1, P 1.49, Q 1.51, A 1.38, D 2.35, C 1.96, E 1.99
G17: M 3.38, D 1.82, L 2.29, V 2.43, Y 3.31, P 1.37, A 1.58, S 2.3, E 1.6, K 1.92, W 2.48, N 2.48, C 2.62, Q 1.95, R 1.79, I 2.43, T 2.05, F 2.18, H 1.9
R7: M 1.78, F 2.83, C 1.82, Q 2.55, A 2.02, S 1.37, L 3.54, I 2.77, D 1.56, Y 2.18, K 1.68, W 2.33, P 2.8, T 2.18, N 1.7, E 1.91, G 1.26, H 2.91, V 2.04
F23: D 1.9, G 2.12, E 2.38, H 2.08, C 1.38, L 1.89, K 2.45, A 1.78, I 2.33
A22: F 2.25, W 1.68, G 1.58, P 3.37, Y 2.34, K 2.42, M 2.4, N 1.75, D 2.44, S 1.91, T 2.31, L 1.74, E 1.38, I 2.06, C 1.98, H 2, V 1.53, R 2.58, Q 1.46
P15: S 4.22, Q 1.64, A 1.53, E 2.37, D 2.97, L 1.95, Y 2.52, I 1.72, R 3.76, W 1.87, M 2.72, G 1.61, K 1.94, H 1.79, N 2.11, T 1.38, F 2.1
